Publication PMC12069617

How the values were obtained:
Assay in all cases: SEC-MALS
[1] = target: PR-B (progesterone receptor isoform B) (UniProt P06401 1-933)
[2] = target: PR-B (progesterone receptor isoform B);SRC3 (steroid receptor coactivator 3);p300 (human?;human?;human?, UniProt P06401;Q9Y6Q9;Q09472 1-933;1-1424;1-2414, ||)
[3] = target: PR-A (progesterone receptor isoform A) (UniProt P06401 165-933)
[4] = target: PR-A (progesterone receptor isoform A);SRC3 (steroid receptor coactivator 3) (human?;human?, UniProt P06401;Q9Y6Q9 165-933;1-1424, |)
[5] = target: PR-A (progesterone receptor isoform A);SRC3 (steroid receptor coactivator 3);p300 (human?;human?;human?, UniProt P06401;Q9Y6Q9;Q09472 165-933;1-1424;1-2414, ||)
[6] = target: PR-B (progesterone receptor isoform B);SRC3 (steroid receptor coactivator 3) (human?;human?, UniProt P06401;Q9Y6Q9 1-933;1-1424, |)
Sequence of PR-B (progesterone receptor isoform B);SRC3 (steroid receptor coactivator 3) (P06401 whole entry, chain 1 of 2, canonical isoform): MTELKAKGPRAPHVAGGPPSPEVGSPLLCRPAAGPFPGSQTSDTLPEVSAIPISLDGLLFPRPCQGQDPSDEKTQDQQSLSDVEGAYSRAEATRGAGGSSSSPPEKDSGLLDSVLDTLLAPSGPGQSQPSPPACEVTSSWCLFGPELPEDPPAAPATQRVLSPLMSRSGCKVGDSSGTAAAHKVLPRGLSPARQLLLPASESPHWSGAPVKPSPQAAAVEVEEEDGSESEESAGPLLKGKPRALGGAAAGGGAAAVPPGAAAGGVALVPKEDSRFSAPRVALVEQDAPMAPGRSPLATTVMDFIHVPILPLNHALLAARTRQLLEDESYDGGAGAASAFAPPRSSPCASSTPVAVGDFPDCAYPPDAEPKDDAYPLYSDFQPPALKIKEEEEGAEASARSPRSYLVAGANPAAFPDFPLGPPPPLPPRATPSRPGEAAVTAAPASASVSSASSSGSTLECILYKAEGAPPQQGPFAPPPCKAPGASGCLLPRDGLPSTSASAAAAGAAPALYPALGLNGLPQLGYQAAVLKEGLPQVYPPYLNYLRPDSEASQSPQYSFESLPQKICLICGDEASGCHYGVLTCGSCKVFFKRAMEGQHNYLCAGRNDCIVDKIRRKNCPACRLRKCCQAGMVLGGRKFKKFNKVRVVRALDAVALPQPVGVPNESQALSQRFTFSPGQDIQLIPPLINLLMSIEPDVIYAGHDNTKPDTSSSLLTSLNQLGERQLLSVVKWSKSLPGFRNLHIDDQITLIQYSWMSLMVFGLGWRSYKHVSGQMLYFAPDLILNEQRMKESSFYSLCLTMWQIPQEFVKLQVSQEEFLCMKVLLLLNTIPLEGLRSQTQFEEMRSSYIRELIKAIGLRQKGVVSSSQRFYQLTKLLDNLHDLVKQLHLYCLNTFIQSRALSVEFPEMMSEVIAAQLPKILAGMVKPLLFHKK
Sequence of PR-B (progesterone receptor isoform B);SRC3 (steroid receptor coactivator 3) (Q9Y6Q9 whole entry, chain 2 of 2, canonical isoform): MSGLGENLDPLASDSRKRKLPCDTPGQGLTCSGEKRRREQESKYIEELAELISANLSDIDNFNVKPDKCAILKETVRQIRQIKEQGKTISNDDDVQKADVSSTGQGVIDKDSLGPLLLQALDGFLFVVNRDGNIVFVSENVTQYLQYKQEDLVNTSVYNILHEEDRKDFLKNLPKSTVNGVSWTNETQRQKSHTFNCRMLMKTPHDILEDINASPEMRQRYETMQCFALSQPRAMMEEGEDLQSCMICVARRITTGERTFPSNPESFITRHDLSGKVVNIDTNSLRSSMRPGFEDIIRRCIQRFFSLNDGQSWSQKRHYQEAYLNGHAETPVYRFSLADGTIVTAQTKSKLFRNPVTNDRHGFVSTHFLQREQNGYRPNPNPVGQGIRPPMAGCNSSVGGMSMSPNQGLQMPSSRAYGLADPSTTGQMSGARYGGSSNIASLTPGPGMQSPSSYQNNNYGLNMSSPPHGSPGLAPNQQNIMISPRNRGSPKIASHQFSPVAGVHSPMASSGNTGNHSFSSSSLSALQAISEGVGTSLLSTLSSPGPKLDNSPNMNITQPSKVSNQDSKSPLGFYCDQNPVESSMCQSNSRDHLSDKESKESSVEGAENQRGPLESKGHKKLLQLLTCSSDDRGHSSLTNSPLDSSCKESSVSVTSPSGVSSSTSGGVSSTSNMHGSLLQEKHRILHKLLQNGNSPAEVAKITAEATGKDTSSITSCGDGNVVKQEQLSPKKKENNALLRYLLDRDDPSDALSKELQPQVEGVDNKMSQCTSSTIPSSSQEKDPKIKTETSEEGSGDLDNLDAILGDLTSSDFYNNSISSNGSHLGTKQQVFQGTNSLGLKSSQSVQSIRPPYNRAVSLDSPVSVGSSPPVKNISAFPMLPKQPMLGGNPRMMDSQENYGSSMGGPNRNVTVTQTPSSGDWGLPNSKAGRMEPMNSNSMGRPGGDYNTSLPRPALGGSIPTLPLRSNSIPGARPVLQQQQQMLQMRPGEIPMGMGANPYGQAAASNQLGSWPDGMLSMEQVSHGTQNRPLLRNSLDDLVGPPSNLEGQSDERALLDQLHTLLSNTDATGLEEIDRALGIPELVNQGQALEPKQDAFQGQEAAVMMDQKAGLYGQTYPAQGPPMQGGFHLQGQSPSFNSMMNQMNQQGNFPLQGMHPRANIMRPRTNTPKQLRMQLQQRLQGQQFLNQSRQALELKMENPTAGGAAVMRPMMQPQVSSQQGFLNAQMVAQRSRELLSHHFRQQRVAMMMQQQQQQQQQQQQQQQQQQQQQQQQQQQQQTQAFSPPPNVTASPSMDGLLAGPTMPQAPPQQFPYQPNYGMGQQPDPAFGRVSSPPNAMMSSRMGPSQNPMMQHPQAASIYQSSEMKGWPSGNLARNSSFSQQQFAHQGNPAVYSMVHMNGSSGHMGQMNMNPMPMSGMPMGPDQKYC

Measured: binding result

Sequence of PR-B (progesterone receptor isoform B) (P06401 whole entry, canonical isoform): as the sequence (P06401 whole entry, chain 1 of 2, canonical isoform) above
Sequence of PR-B (progesterone receptor isoform B);SRC3 (steroid receptor coactivator 3);p300 (P06401 whole entry, chain 1 of 3, canonical isoform): as the sequence (P06401 whole entry, chain 1 of 2, canonical isoform) above
Sequence of PR-B (progesterone receptor isoform B);SRC3 (steroid receptor coactivator 3);p300 (Q9Y6Q9 whole entry, chain 2 of 3, canonical isoform): as the sequence (Q9Y6Q9 whole entry, chain 2 of 2, canonical isoform) above
Sequence of PR-B (progesterone receptor isoform B);SRC3 (steroid receptor coactivator 3);p300 (Q09472 whole entry, chain 3 of 3, canonical isoform): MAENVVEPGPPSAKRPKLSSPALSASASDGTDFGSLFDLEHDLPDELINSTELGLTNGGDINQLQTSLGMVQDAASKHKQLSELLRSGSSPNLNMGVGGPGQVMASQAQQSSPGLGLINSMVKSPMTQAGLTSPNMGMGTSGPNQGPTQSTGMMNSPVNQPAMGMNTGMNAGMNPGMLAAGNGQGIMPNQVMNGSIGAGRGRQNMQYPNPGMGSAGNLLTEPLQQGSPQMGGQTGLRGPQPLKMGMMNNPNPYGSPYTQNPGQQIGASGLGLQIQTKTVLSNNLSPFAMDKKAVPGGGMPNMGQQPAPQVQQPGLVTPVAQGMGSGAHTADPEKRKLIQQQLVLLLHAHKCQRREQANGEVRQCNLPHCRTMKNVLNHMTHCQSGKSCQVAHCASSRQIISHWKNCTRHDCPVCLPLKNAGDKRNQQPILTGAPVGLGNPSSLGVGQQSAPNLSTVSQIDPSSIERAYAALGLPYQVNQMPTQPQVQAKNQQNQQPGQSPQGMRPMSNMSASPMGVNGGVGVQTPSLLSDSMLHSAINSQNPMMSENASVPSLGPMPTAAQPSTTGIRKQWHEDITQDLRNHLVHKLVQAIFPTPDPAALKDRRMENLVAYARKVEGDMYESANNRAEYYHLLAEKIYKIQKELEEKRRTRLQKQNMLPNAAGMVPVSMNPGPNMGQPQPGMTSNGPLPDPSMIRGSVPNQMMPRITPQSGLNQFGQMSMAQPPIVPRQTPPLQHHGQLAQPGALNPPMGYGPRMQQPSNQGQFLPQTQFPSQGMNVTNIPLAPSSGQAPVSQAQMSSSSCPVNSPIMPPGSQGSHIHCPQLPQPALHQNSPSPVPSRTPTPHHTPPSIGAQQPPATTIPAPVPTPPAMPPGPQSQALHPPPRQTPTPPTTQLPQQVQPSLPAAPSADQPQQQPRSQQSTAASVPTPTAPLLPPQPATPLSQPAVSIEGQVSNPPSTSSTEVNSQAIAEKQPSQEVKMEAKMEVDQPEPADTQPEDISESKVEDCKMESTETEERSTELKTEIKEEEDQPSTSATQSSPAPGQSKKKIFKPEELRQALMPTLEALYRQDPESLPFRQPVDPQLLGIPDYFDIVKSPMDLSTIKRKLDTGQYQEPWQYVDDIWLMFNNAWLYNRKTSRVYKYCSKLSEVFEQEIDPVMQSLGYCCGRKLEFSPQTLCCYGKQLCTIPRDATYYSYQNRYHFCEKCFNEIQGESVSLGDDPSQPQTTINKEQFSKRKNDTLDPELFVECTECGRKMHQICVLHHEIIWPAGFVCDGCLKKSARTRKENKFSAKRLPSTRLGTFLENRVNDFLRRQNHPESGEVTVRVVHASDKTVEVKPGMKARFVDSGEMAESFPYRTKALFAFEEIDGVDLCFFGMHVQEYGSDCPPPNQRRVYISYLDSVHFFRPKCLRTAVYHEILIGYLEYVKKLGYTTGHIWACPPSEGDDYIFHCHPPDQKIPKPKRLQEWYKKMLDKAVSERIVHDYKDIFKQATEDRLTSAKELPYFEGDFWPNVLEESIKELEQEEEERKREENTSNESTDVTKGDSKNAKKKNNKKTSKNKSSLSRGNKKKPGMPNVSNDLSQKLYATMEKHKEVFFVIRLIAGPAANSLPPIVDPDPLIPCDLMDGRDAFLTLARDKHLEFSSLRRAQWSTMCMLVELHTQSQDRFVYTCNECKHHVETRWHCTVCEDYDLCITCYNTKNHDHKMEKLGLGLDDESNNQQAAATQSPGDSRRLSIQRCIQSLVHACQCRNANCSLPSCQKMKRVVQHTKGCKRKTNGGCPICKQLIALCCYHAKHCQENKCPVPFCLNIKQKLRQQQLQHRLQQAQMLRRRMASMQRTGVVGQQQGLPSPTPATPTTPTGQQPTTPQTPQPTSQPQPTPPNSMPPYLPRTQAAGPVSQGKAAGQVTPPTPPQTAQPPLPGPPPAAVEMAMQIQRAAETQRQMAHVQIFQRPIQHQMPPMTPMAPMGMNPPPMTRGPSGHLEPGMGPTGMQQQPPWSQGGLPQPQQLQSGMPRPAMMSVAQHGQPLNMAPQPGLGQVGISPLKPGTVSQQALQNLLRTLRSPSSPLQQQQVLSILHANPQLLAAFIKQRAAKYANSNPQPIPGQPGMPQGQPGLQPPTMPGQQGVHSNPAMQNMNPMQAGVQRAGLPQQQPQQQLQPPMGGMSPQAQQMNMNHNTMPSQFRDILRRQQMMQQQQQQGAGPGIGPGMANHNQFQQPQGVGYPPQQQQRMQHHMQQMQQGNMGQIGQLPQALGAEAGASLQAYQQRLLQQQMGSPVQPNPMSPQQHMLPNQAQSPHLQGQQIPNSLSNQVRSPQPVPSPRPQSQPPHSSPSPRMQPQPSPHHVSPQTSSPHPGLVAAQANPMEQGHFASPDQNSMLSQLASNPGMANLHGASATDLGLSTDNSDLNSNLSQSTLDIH

B1: 32-mer PRE (progesterone response element) (dsDNA)
DNA 1: CATCTTTGAGAACAAACTGTTCTTAAAACGAG
DNA 2: CTCGTTTTAAGAACAGTTTGTTCTCAAAGATG
binds: all assays above
